The numbers were not newly measured in article PMC9303997, which cites them from elsewhere.

pKd: −log10 of the molar value.

In general, pKd refers to the negative decadic logarithm of the Kd, by convention in mol/L.

Series [1] addresses spastin MIT (Homo sapiens) (UniProt Q9UBP0).
The target in a further series is VPS4B MIT (Homo sapiens) (UniProt O75351).
VPS4B MIT (Homo sapiens), sequence (O75351 1-85): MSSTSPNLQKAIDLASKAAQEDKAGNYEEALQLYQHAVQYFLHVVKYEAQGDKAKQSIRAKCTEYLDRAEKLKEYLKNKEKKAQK

spastin MIT (Homo sapiens), sequence (Q9UBP0 117-198): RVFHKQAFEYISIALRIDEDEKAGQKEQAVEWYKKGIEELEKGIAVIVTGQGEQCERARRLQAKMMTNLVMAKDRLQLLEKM

On to IST1 MIM (from UniProt P53990), for which the negative-log Kd (pKd) in series [1] was 9.30; with VPS4B MIT (Homo sapiens), 7.92.
